This sample holds only a part of the variants without activity.
B1: TPR 5TU (parent)
chain: GGAUCUUCUCGAUCUAACAAAAAAGACAAAUCUGCCACAAAGCUUGAGAGCAUCUUCGGAUGCAGAGGCGGCAGCCUUCGGUGGCGCGAUAGCGCCAACGUUCUCAACUAUGACACGCAAAACGCGUGCUCCGUUGAAUGGAGUUUAUCAUG

Variants of: B1
Test: polymerase ribozyme fitness, log enrichment relative to wild type (log ratio); higher = more active; in vitro selection for triplet polymerase activity
How it was run: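 Each subunit of a heterodimeric triplet polymerase ribozyme was mutagenized into a library by PCR, transcribed, and subjected to one round of in vitro selection, run in triplicate. Libraries were annealed with a biotinylated primer, the partner subunit and triplets, incubated frozen at −7 °C, and extended constructs were gel-excised, captured on streptavidin beads and recovered by RT-PCR. Input and output libraries were sequenced on Illumina, keeping genotypes with ≥10 input reads and ≥1 read per output. Fitness is log base 2 of genotype enrichment divided by wild-type enrichment, from inverse-variance-weighted replicate averages.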

A47G C87A U90G A98G C99A G117C C149A and C10U G25C G80A C87G cannot be ordered by “polymerase ribozyme fitness (log ratio)” value: at most -4.2 for the first, at most -4.2 for the second.

Going from C96U A121U U139A to C95U C99U, the “polymerase ribozyme fitness (log ratio)” value rises from at most -4.2 to -1.09.

First: C32A U77G G88A G126C G143U
Second: G83A U135C
The “polymerase ribozyme fitness (log ratio)” value of the first is lower: at most -4.2 for the first, -2.09 for the second.

A30G G74U C93A U102C U127G C129G U144G and G50C U55G G67A C75A C87U U134G A137G cannot be ordered by “polymerase ribozyme fitness (log ratio)” value: at most -4.2 for the first, at most -4.2 for the second.

Compared with A49G A52C G86C, A49G G58C is higher in “polymerase ribozyme fitness (log ratio)” value: -3.61 for the first, -0.689 for the second.

Going from A47G U82G C95G to G68A A119U A122U U148A, the “polymerase ribozyme fitness (log ratio)” value falls from -3.89 to at most -4.2.

First: C38U G50A
Second: U45G G50A C54U A120C G126C
The “polymerase ribozyme fitness (log ratio)” value of the first is higher: -2.15 for the first, at most -4.2 for the second.

A24G C51G G59C G92C C99U C125U and G42C A52C A64G G80A C96A C108U A110G cannot be ordered by “polymerase ribozyme fitness (log ratio)” value: at most -4.2 for the first, at most -4.2 for the second.

C18G C36A C95A C96A and A29U U55A G62C C116G cannot be ordered by “polymerase ribozyme fitness (log ratio)” value: at most -4.2 for the first, at most -4.2 for the second.

Going from U15A A21G A49G C96G to A21C G81C G88A A107G, the “polymerase ribozyme fitness (log ratio)” value falls from -1.26 to at most -4.2.

First: U78G G86U
Second: A73G G83C
The “polymerase ribozyme fitness (log ratio)” value of the first is lower: at most -4.2 for the first, -2.56 for the second.

Going from G25U C63G G88C C108U to A12G C63U U134A, the “polymerase ribozyme fitness (log ratio)” value rises from -3.94 to -2.26.

Going from A3G U4A A17C A52G G94C U102C C131U to A19C C36U G59U A60G C93U U104G, the “polymerase ribozyme fitness (log ratio)” value falls from -1.71 to -3.23.

Compared with U82G G143A, C27A U56A is lower in “polymerase ribozyme fitness (log ratio)” value: -0.245 for the first, -3.7 for the second.

Compared with A98U C118U U144G, C10A G58C A66U G80A C95U C96U U144G is lower in “polymerase ribozyme fitness (log ratio)” value: 0.244 for the first, at most -4.2 for the second.

Compared with G48U U134G, A37C C96U is higher in “polymerase ribozyme fitness (log ratio)” value: -2.34 for the first, -1.09 for the second.

Compared with C36U A37U U56A A91C C116G, G84A U148G is higher in “polymerase ribozyme fitness (log ratio)” value: at most -4.2 for the first, -3.25 for the second.

A21U A28C U31G A47G C85U C116G C129A G133A and C35G C79A G83A A121U cannot be ordered by “polymerase ribozyme fitness (log ratio)” value: at most -4.2 for the first, at most -4.2 for the second.

First: A47G G133C C149G
Second: U56C C93U
The “polymerase ribozyme fitness (log ratio)” value of the first is lower: -3.65 for the first, -1.53 for the second.

Compared with G152A, A89G A97G A113U C118A A120C G141C is lower in “polymerase ribozyme fitness (log ratio)” value: -1.77 for the first, at most -4.2 for the second.

Going from C51U G84A G117C U135A to G11A C27G U53A G83U G86A G140A, the “polymerase ribozyme fitness (log ratio)” value falls from -0.541 to at most -4.2.

First: U13A U45A G84A
Second: A16U G84A
The “polymerase ribozyme fitness (log ratio)” value of the first is lower: at most -4.2 for the first, -2.41 for the second.

Compared with U56G G59U C87A, A22U C76U is higher in “polymerase ribozyme fitness (log ratio)” value: at most -4.2 for the first, 0.515 for the second.

First: G88C
Second: C14A G94A
The “polymerase ribozyme fitness (log ratio)” value of the first is lower: -4.19 for the first, -1.67 for the second.

C8G U15C A52G C57G G59U C87G and U15G U53A A60C G83A C85U are within 0.2 log units of each other in “polymerase ribozyme fitness (log ratio)” value: -3.95 for the first, -3.78 for the second.

Compared with A52U U101G, U33G C54U C96G A147U is lower in “polymerase ribozyme fitness (log ratio)” value: -2.22 for the first, -3.24 for the second.

A20C U55A C132A A137G G143A U146G and A91U A120U cannot be ordered by “polymerase ribozyme fitness (log ratio)” value: at most -4.2 for the first, at most -4.2 for the second.

C14A A40U C76U U78G G84A C103G G128A G141C and G46C U90A cannot be ordered by “polymerase ribozyme fitness (log ratio)” value: at most -4.2 for the first, at most -4.2 for the second.

C93G G128U U146C and A21C C43A cannot be ordered by “polymerase ribozyme fitness (log ratio)” value: at most -4.2 for the first, at most -4.2 for the second.

Going from U15G A24U A60G G92U to A60C G92U A97G, the “polymerase ribozyme fitness (log ratio)” value falls from 0.475 to -2.29.

U33G A52G U130G C131U G133U U146A and A26C U44G A91U U145C cannot be ordered by “polymerase ribozyme fitness (log ratio)” value: at most -4.2 for the first, at most -4.2 for the second.

First: G92C U101G C131A
Second: A40C G59C C63A G65U C87A C95U C125A G126U
The “polymerase ribozyme fitness (log ratio)” value of the first is higher: -3.96 for the first, at most -4.2 for the second.

C18U A21C G42C C93U and A30G U44A A49U C87U G88A G92A A115U cannot be ordered by “polymerase ribozyme fitness (log ratio)” value: at most -4.2 for the first, at most -4.2 for the second.

First: U56G G65C G67C C85A C93G C118U C149A
Second: A107C C116G
The “polymerase ribozyme fitness (log ratio)” value of the first is lower: at most -4.2 for the first, -3.74 for the second.

First: A20U A28U A64C C79U C93A C114U
Second: A19C A20C U148A
The “polymerase ribozyme fitness (log ratio)” value of the first is lower: at most -4.2 for the first, -3.05 for the second.

Compared with A121U G143C, A30C U31G U82A G92C C103A U134G is lower in “polymerase ribozyme fitness (log ratio)” value: -1.7 for the first, at most -4.2 for the second.

C18U G62A G67A U77G C87A U101C C123U G136A and A29G U56A U77C cannot be ordered by “polymerase ribozyme fitness (log ratio)” value: at most -4.2 for the first, at most -4.2 for the second.

First: C8U G74U C79U C93A G143U
Second: C5A C18U G86U
The “polymerase ribozyme fitness (log ratio)” value of the first is lower: at most -4.2 for the first, -1.4 for the second.

First: A21U A41G
Second: A16G C36G
The “polymerase ribozyme fitness (log ratio)” value of the first is higher: 1.06 for the first, -4.12 for the second.

Going from U56A G88A to A40U G141U, the “polymerase ribozyme fitness (log ratio)” value rises from -3.78 to 0.96.

Compared with U102G G152U, C14U G83U C95U C116U is higher in “polymerase ribozyme fitness (log ratio)” value: at most -4.2 for the first, -1.49 for the second.

In the case of C14U A40C C54U C63A C95U A106C, the “polymerase ribozyme fitness (log ratio)” value is reported as at most -4.2.

— the RNAGym collection of RNA variant scans (doi:10.1073/pnas.2313332121)
